Assay results: patent US20260042834A1, “ANTI-CORTICOTROPIN-RELEASING HORMONE ANTIBODIES AND POLYCYSTIC OVARY SYNDROME” (HBM ALPHA THERAPEUTICS, INC., priority 2022, published 2026)
Like-named read-outs stand apart in the source and are kept apart here.

How the values were obtained:
human CRHR2 = assay: CRH-induced luciferase reporter blocking assay, CHO-CRE-hCRHR2 cells; assay type: cell-based
Experimental: (§1) To create CHO-CRE-hCRHR1, -hCRHR2, -mCRHR1, and -mCRHR2 reporter cell lines, pcDNA3.1-hCRHR1, -hCRHR2, -mCRHR1, and -mCRHR2 were introduced into CHO-CRE cells established above by electroporation as described above. Selection antibiotics hygromycin at 500 μg/ml and G418 at 1,000 μg/ml were employed. Individual established stable cell lines were characterized by both CRH and forskolin stimulation.
Activated GPCR proteins increase production of the intracellular cAMP. CHO-CRE-human CRHR1 stable clone 11 was generated by introduction of pcDNA3.1-human CRHR1 under the selection of G418 and hygromycin. Human CRHR1 expression in CHO-CRE-hCRHR1 Clone 11 was confirmed by flow cytometry (data not shown). To further validate that the cell line was functional, CHO-CRE-hCRHR1 Clone 11 cells were treated with forskolin and CRH peptide. […] Subsequently CHO-CRE-hCRHR2 Clone 32, -mCRHR1 Clone 22, and -mCRHR2 Clone 8 cell lines were established using similar methodology and validated with CRH treatment (data not shown).
Blocking CRHR1 by small molecules or neutralization of CRH peptide can reduce luciferase expression if the CRH-CRHR1 system works in CHO-CRE-hCRHR1 cells. Antalarmin, a small molecule CRHR1 antagonist, blocked CRH-mediated luciferase expression in CHO-CRE-hCRHR1 Clone 11 (data not shown). Furthermore, sheep anti-CRH polyclonal antibody reduced CRH-mediated luciferase expression in these cells (data not shown). Likewise, sheep anti-CRH polyclonal antibody blocked CRH-mediated luciferase expression in CHO-CRE-hCRHR2, CHO-CRE-mCRHR1, and CHO-CRE-mCRHR2 cells (data not shown).
(§2) Cells were digested by trypsin-EDTA (Life technologies, Cat #:12604-013), centrifuged at 1,000 rpm for 5 min, resuspended in growth medium, counted using a cell counter, seeded at a concentration of 5,000 cells per 100 μl in 96-well flat plates, and incubated overnight. 50 μl of 4× serially diluted antibodies was added (8 points, 1/4 diluted by growth medium) to plates containing CHO-CRE-hCRHR1 cells, and 50 μl of 4×CRH (4× is 2 nM, final is 0.5 nM) was added. Similarly, 4×CRH (4× is 0.4 nM, final is 0.1 nM) was added to CHO-CRE-hCRHR2 cells and CHO-CRE-mCRHR1 cells, and 4×CRH (4× is 20 nM, final is 5 nM) was added to CHO-CRE-mCRHR2 cells. Next, plates were incubated 4-6 hours at 37° C. in a CO2 incubator. 60 μl of culture medium was removed, to which was added 60 μl of Bio-Glo luciferase, followed by incubation for 10 min at RT. Plates were read in a luciferase plate reader (EnVision, PerkinElmer).

mouse CRHR2 = assay: CRH-induced luciferase reporter blocking assay, CHO-CRE-mCRHR2 cells; assay type: cell-based
Experimental: as §1, with “stimulation. […]” for “stimulation.”
as §2

biotinylated CRH = biological target: T1, biotinylated CRH (Homo sapiens, UniProt P06850); assay: Affinity determination with Octet; assay type: binding
T1 construct: purchased GL Biochem 784751
T1 sequence (P06850 154-194): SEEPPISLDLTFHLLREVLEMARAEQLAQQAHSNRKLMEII
Experimental: Octet® Red 96e was used for affinity measurement. Octet® running buffer was prepared by diluting kinetics buffer 10× (Fortebio, Cat #18-1105) in PBS according to the manufacturer's instructions. Two columns of SA sensors (Fortebio, Cat #18-5019) were hydrated in running buffer for 10 mins, one for ligand capturing and the other for reference. Antibodies were 2-fold diluted and added into a 96-well plate. 30 nM biotinylated CRH (GL Biochem, Cat #784751) was captured by the first column of SA sensors for 20 seconds, while reference sensors were dipped into buffer wells. After a 60-second baseline step, sensors were dipped into analyte and buffer wells successively, with the association and dissociation time of 180 seconds and 800 seconds, respectively. Sensors were regenerated in glycine pH1.5 (Cytiva, Cat #BR-1003-54) before the next cycle. […] Signals of reference wells and reference sensors were subtracted by selecting “Double reference” before data fitting.

[1] = biological target: T2, N-terminal region plus central region, central region only, central region plus C-terminal region of CRH (Homo sapiens, UniProt P06850); assay: ELISA determining the binding region of CRH; settings: dash = no binding
T2 construct: N-terminal region plus the central region (CT biotin), the central region only (NT biotin or CT biotin)
Experimental: Streptavidin (Thermo, Cat: 21125) was diluted in PBS to a concentration of 2 μg/ml. 100 μl of diluted streptavidin was added per well to ELISA microplates, and the plates were incubated overnight at 4° C. Plates were blocked with ELISA blocking solution (containing 2% w/v BSA, 0.05% (v/v) Tween-20, pH 7.4 PBS buffer) at 37° C. for 1 hour, and then incubated with 1 μg/mL N-terminal region plus the central region (CT biotin), the central region only (NT biotin or CT biotin), or the central region plus C-terminal region (NT biotin) of CRH for 1 hour at 37° C. Plates were then washed and incubated with diluted anti-CRH antibody (Ab) at 15 μg/ml (100 nM, 10 diluted, 8 points) for 1 hour at 37° C. Subsequently, plates were washed and incubated with HRP-conjugated goat anti-human IgG (H+L) antibody (Jackson, Cat: 109-035-088) at 37° C. for 1 hour. 100 μL of 3,3′,5,5′-tetramethylbenzidine (TMB) substrate (Biopanda, Cat: TMB-S-003) was added, and the plates were incubated at room temperature for 15 minutes. 100 μL of ELISA stopping solution (Solarbio, Cat #: C1058) was added to terminate the reaction, and the optical density at 450 nm (OD450 nm) was determined by an ELISA plate reader (Molecular Devices, Spectra max 384 plus).

[2] = CHO-CRE-hCRHR2 cells, 0.1 nM CRH

B1: PR302334: Series 9 anti-CRH mAb from immunized wildtype mice; VH SEQ ID NO: 272, VL SEQ ID NO: 331 (antibody, V domains shown)
VH: EVKLVESGGGLVKPGGSLKLSCAASGFTFSTYAMSWVRQTPEKRLEWVASIRSGGTTYYPDSVKGRFTISRDNARNILYLQMSSLRSEDTAIYYCTRGIDWGQGTLVTVSA
VL: NIVMTQTPKFLLVSAGDRITITCKASQSVNNDVAWYQQKPGQSPKLLIYYASNRYTGVPDRFTGSGYGTDFTFTISTVQAEDLAVYFCQQDYSSWTFGGGTNLEIK
modifications: PR302334-1 VH, PR302334-2 VH, PR302334-3 VH, PR302334-4 VH,PR302334-5 VH, PR302334-6 VH, PR302334 VH; PR302334-14 VL, PR302334-15 VL, PR302334-16 VL, PR302334-17 VL,PR302334-18 VL, PR302334 VL
Human CRHR2; [2]
  IC50: 0.803 nM
Mouse CRHR2; CHO-CRE-mCRHR2 cells, 5 nM CRH
  IC50: 0.995 nM
Biotinylated CRH
  kdis: <1e-07 s⁻¹
  kon: 669000 M⁻¹ s⁻¹

B2: PR302334-8: humanized variant of Series 9 mAb PR302334; VH SEQ ID NO: 273, VL SEQ ID NO: 332 (antibody, V domains shown)
VH: EVQLVESGGGLVQPGGSLRLSCAASGFTFSTYAMSWVRQAPGKGLEWVASIRSGGTTYYPDSVKGRFTISRDNSKNTLYLQMNSLRAEDTAVYYCTRGIDWGQGTTVTVSS
VL: EIVMTQSPATLSVSPGERATLSCKASQSVNNDVAWYQQKPGQAPRLLIYYASNRYTGIPARFSGSGSGTEFTLTISSLQSEDLAVYFCQQDYSSWTFGGGTKVEIK
modifications: PR302334-10 VH, PR302334-11 VH, PR302334-12 VH, PR302334-14 VH,PR302334-7 VH, PR302334-8 VH, PR302334-9 VH; PR302334-22 VL, PR302334-2 VL, PR302334-8 VL
Human CRHR2; [2]
  IC50: 2.32 nM
Mouse CRHR2; CHO-CRE-mCRHR2 cells, 5 nM CRH
  IC50: 2.74 nM
Biotinylated CRH
  kdis: <1e-07 s⁻¹
  kon: 14700 M⁻¹ s⁻¹

B3: PR302334-10: humanized variant of Series 9 mAb PR302334; VH SEQ ID NO: 273, VL SEQ ID NO: 328 (antibody, V domains shown)
VH: EVQLVESGGGLVQPGGSLRLSCAASGFTFSTYAMSWVRQAPGKGLEWVASIRSGGTTYYPDSVKGRFTISRDNSKNTLYLQMNSLRAEDTAVYYCTRGIDWGQGTTVTVSS
VL: DIVMTQSPDSLAVSLGERATINCKASQSVNNDVAWYQQKPGQPPRLLIYYASNRYTGVPDRFSGSGSGTDFTLTISSLQAEDLAVYFCQQDYSSWTFGGGTKVEIK
modifications: PR302334-10 VH, PR302334-11 VH, PR302334-12 VH, PR302334-14 VH,PR302334-7 VH, PR302334-8 VH, PR302334-9 VH; PR302334-10 VL, PR302334-24 VL, PR302334-26 VL, PR302334-4 VL
Human CRHR2; [2]
  IC50: 2.08 nM
Mouse CRHR2; CHO-CRE-mCRHR2 cells, 5 nM CRH
  IC50: 1.98 nM
Biotinylated CRH
  kdis: <1e-07 s⁻¹
  kon: 6840 M⁻¹ s⁻¹

B4: PR302334-27: humanized variant of Series 9 mAb PR302334; VH SEQ ID NO: 277, VL SEQ ID NO: 330 (antibody, V domains shown)
VH: EVQLVESGGGLVQPGGSLRLSCAASGFTFSTYAMSWVRQAPGKGLEWVASIRSGGTTYYPDSVKGRFTISRDNSKNSLYLQMNSLRAEDTAVYYCTRGIDWGQGTTVTVSS
VL: DIQMTQSSLSASVSLGDRVTITCKASQSVNNDVAWYQQKPGKAPRLLIYYASNRYTGVPSRFSGSGSGTDFTFTISSLQPEDLATYFCQQDYSSWTFGGGTKVEIK
modifications: PR302334-18 VH, PR302334-26 VH, PR302334-27 VH; PR302334-12 VL, PR302334-25 VL, PR302334-27 VL, PR302334-6 VL
Human CRHR2; [2]
  IC50: 1.65 nM
Mouse CRHR2; CHO-CRE-mCRHR2 cells, 5 nM CRH
  IC50: 1.84 nM
Biotinylated CRH
  kdis: <1e-07 s⁻¹
  kon: 302000 M⁻¹ s⁻¹

B5: PR302341: Series 10 anti-CRH mAb from immunized wildtype mice; VH SEQ ID NO: 280, VL SEQ ID NO: 339 (antibody, V domains shown)
VH: EVQLQQSGPELVKPGASVKMSCKASGYTFTDYFMKWVKQSHGESLEWIGVINPNNGDIFYNQKFKGKATLTVDKSSSTAFMQLNSLTSEDSAVYSCARGTDRALFAYWGQGTLVAVSA
VL: DVLMTQTPLSLPVSLGDQASISCRSGQSIVHSDGNTYLEWYLQRPGQSPRLLIYKVSNRFSGVPDRFSGSGSGTDFTLKISRVGAEDLGIYYCFQGSHIPWTFGGGTKLEVK
modifications: PR302341-1 VH, PR302341-2 VH, PR302341-3 VH, PR302341-4 VH,PR302341-5 VH, PR302341-6 VH, PR302341 VH; PR302341-13 VL, PR302341-14 VL, PR302341-15 VL, PR302341-16 VL,PR302341-17 VL, PR302341-18 VL, PR302341 VL
Human CRHR2; [2]
  IC50: 0.244 nM
Human CRHR2; Table 9, hCRHR2
  IC50: ~2.18 nM
Mouse CRHR2; CHO-CRE-mCRHR2 cells, 5 nM CRH
  IC50: 0.849 nM
Mouse CRHR2; Table 9, mCrhr2
  IC50: 2.41 nM
Biotinylated CRH
  kdis: 2.18e-07 s⁻¹
  kon: 1.01e+06 M⁻¹ s⁻¹

B6: PR302309-18: humanized variant of Series 7 mAb PR302309; VH SEQ ID NO: 263, VL SEQ ID NO: 318 (antibody, V domains shown)
VH: QVQLVQSGAEVKKPGASVKVSCKASGYTFTNYGMNWVRQAPGQRLEWMGWINTYTGEPIYTDDFKGRVTITRDTSASTAYMELSSLRSEDTAVYYCARSTMITTGGVFAYWGQGTLVTVSS
VL: DVVMTQSPLSLPVTLGQPASISCRSSQTIVHSDGNTYLEWYQQRPGQSPRLLIYKVSNRFSGVPDRFSGSGSGTDFTLKISRVEAEDLGVYYCFQGSHVPWTFGGGTKVEIK
modifications: PR302309-15 VH, PR302309-18 VH; PR302309-17 VL, PR302309-18 VL, PR302309-19 VL, PR302309-2 VL,PR302309-8 VL
[1]; central plus C-terminal region CRH peptide, NT-biotin (SEQ ID NO: 483), read-out: ELISA EC50 C-Ter-CRH (NT-Bion)
  EC50: > 100 nM
[1]; central region CRH peptide, CT-biotin (SEQ ID NO: 485), read-out: ELISA EC50 Central-CRH (CT-Bion)
  EC50: > 100 nM
[1]; central region CRH peptide, NT-biotin (SEQ ID NO: 484), read-out: ELISA EC50 Central-CRH (NT-Bion)
  EC50: > 100 nM
Biotinylated CRH
  kdis: <1e-07 s⁻¹
  kon: 126000 M⁻¹ s⁻¹
